This is an account of results in patent US20200291118A1 (HANX BIOPHARMACEUTICS, published 2020).

The target of experiment [1] is T1, hPD-1-his antigen (human, UniProt Q15116 25-167, limits assumed).
T1 construct: Coating antigen; not shown: his tag
As to the kind of experiment: ELISA on coated hPD-1-his. The method, then: (§1) An ELISA plate was coated with hPD-1-his antigen at a concentration of 0.25 μg/ml (100 μl per well) by incubation at 4° C. overnight.
(§2) The ELISA plate coated with the hPD-1-his antigen was blocked with 1% BSA (diluted in the PBS buffer) at 37° C. for 2 hours, and then washed with 1×PBST buffer containing 1% Tween-20 for three times, with gently patting to dryness.
(§3) The absorbance of solution in each well was measured on a microplate reader under a wavelength of 450 nm.
In general terms: In an ELISA, binding on a coated surface is turned into a signal by an enzyme label.

Experiment [2] concerns the target T1, hPD-1-his antigen. As to the kind of experiment: ELISA on coated hPD-1-his; antibody 1:5 of 2 µg/ml. The method, then:
as §1, §2, §3

The target in experiment [3] is T2, hPD-1-hIgGFc antigen (human, UniProt Q15116 25-167, limits assumed).
T2 construct: not shown: human IgG Fc
T2 sequence (Q15116 25-167 limits assumed): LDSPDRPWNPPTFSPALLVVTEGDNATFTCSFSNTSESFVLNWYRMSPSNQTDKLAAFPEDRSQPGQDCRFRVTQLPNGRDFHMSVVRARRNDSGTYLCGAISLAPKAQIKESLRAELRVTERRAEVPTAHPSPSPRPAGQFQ
As to the kind of experiment: competition ELISA on coated hPD-1-hIgGFc; competitor PD-L2-his tag. How it is done:
A 96-well ELISA plate was coated with hPD-1-hIgGFc antigen at a concentration of 1.0 μg/ml (100 μl per well) by incubation at 4° C. overnight.
After the 96-well ELISA plate was washed with the PBST buffer for five times and gently patted to dryness, HRP conjugated anti-his tag mouse monoclonal antibody as a secondary antibody in 1:750 dilution (50 μl per well) was added for incubation at 37° C. for 1 hour.

Experiment [4] deals with T2, hPD-1-hIgGFc antigen. Kind of experiment: competition ELISA on coated hPD-1-hIgGFc; competitor PD-L1-mIgG2aFc. The method, then: A 96-well ELISA plate was coated with hPD-1-hIgGFc antigen at a concentration of 0.5 μg/ml (50 μl per well) by incubation at 4° C. overnight.

One may read the EC50 as the concentration that produces a half-maximal response. The term IC50 denotes the point on the concentration scale where inhibition reaches its midpoint. High values mean weaker potency, low ones greater potency.

T1 sequence (Q15116 25-167 limits assumed): as above

B1: humanized antibody H8 (anti-PD-1 IgG antibody) (antibody, V domains shown)
VH: EVQLVQSGGGLVQPGGSLKLSCAASGFTFSSYGMSWVRQAPGKGLDWVATISGGGRDTYYPDSVKGRFTISRDNSKNNLYLQMNSLRAEDTALYYCARQKGEAWFAYWGQGTLVTVSA
VL: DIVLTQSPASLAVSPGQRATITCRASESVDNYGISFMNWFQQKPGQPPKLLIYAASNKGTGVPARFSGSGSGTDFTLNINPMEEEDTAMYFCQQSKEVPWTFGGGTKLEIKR
notes: also called HX008; HX008 18A10 antibody
Regarding B1, in the experiment with hPD-1-his antigen [1], the EC50 turned out to be 0.05 nM. Also, the “absorbance at 450 nm” value in the experiment with hPD-1-his antigen [2] came out at 1.76. Further, the IC50 with hPD-1-hIgGFc antigen [3] came out at 2.7 nM; in the experiment with hPD-1-hIgGFc antigen [4], 1 nM.
